Assay results reported in PMC7241105 (bioRxiv, 2020).

Molecular target: SARS-CoV-2 receptor binding domain (RBD) (SARS-CoV-2, UniProt P0DTC2)
Experiment: BLI

Binder	binding result
CV43 (antibody, V domains shown) VH: QVQLVESGGGVVQPGRSLRLSCAASGFTFSSYAMHWVRQAPGKGLEWVAVISYDGSNKYYADSVKGRFTISRDNSKNTLYLQMNSLRAEDTAVYYCARVTVVHFDYWGQGTLVTVSS VL: NFMLTQPHSVSESPGKTVTISCTGSSGSIASNYVQWYQQRPGSAPTTVIYEDNQRPSGVPDRFSGSIDSSSNSASLTISGLKTEDEADYYCQSYDSSNWVFGGGTKLTVL	binds
CV5 (antibody, V domains shown) VH: QVQLVQSGAEVKKPGASVKVTCKASGYTFTSYYLHWVRQAPGQGLEWMGIINPSGGTTSYAQKFQGRVTMTRDTSTSTVYMELSSLRSEDTAVYYCARAGRRYSSSDDGAFDIWGQGTMVTVSS VL: not shown	binds
